Laboratory results reported in the supplement of paper PMC9170038.

Test system: MS2 coat protein
Assay: apparent KD of MS2 coat protein; higher = weaker reporter binding
Conditions: Eterna round: R107
In short: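 In 100 mM Tris-HCl pH 7.5 with 80 mM KCl and 4 mM MgCl2, and without or with constant ligand, SNAP-549-labelled MS2 coat protein was titrated in twofold steps from 0.7 or 1.5 nM to 3 µM. Per-step times went from 0.8–1.5 h down to 10–20 min. The RNA switches were transcribed on-chip from Illumina sequencing clusters, and apparent KD is the per-design median of normalised cluster binding-curve fits.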

[1] = input ligand: theophylline 20 uM
[2] = input ligand: tryptophan 2.4 mM
[3] = input ligand: theophylline 2 mM

Sequence: AUUUUUCUAUCAGAUACCAGACAACUCCAAACAUGAGGAUCACCCAUGUAUUGGGUGUUCGUCCCUUGGCAGCUGUUAAUGUUAA [JR_SSTheophyB_Sub003]
- apparent KD of MS2 coat protein (input ligand: arginine 13.2 mM): 24.6 nM
- apparent KD of MS2 coat protein [1]: 18.1 nM
- apparent KD of MS2 coat protein [2]: 16.9 nM

Sequence: AAACAUGAGGAUCACCCAUGUAUGUUAUUACGAGGACCGGUACGGCCGCCACUCGAUAGAGUAGAAGUAAAUUGUAAUUCAUGUU [JR_ExcTryptoA_Sub017]
- apparent KD of MS2 coat protein (input ligand: arginine 13.2 mM): 19.3 nM
- apparent KD of MS2 coat protein [1]: 18.8 nM
- apparent KD of MS2 coat protein [3]: 16.9 nM

Sequence: GUCCGCAGCCGAAGGAGCGCUAGAAGGUGACAUGAGGAUCACCCAUGUGUGUGAUGUGGCUAGCAGGUAGGUCGCGGAGCGGAUU [Exclusion - Arginine B (Freestyle 18)]
- apparent KD of MS2 coat protein (input ligand: arginine 13.2 mM): 85.2 nM
- apparent KD of MS2 coat protein (input ligand: none): 59.2 nM
- apparent KD of MS2 coat protein [1]: 110 nM
- apparent KD of MS2 coat protein [3]: 76.7 nM
- apparent KD of MS2 coat protein [2]: 61.9 nM

Sequence: GAGCUCGUGGACUGGCGUGCUCCGCUCCGUCGAGGACCGGUACGGCCGCCACUCGACAUGAGGAUCACCCAUGUGCGAGCUCGCU [#1 Exclusion - Tryptophan A Attempt #22 (HarryS)]
- apparent KD of MS2 coat protein (input ligand: arginine 13.2 mM): 11.4 nM
- apparent KD of MS2 coat protein (input ligand: none): 46.2 nM
- apparent KD of MS2 coat protein [1]: 113 nM
- apparent KD of MS2 coat protein [3]: 117 nM
- apparent KD of MS2 coat protein [2]: 21.4 nM

Sequence: UCUUUCUAUGUAGAUACCAGCAUGUUAUCUUUCUUUUGACAUGAGGAUCACCCAUGUAAAUGCCCUUGGCAGCUACAUUUUCUUU [SSTHB #3]
- apparent KD of MS2 coat protein (input ligand: arginine 13.2 mM): 21 nM
- apparent KD of MS2 coat protein [1]: 20.9 nM
- apparent KD of MS2 coat protein [2]: 19.7 nM

Sequence: GGACAACAUGAGGAUCACCCAUGUCCUGAUACCAGUCAGCGCAGUGACCCUUGGCAGCAGACGGAUACGAAAUAACUGAGAGAUA [theeternabot_sameState_MS2_Theo_A_44]
- apparent KD of MS2 coat protein (input ligand: arginine 13.2 mM): 29.2 nM
- apparent KD of MS2 coat protein [1]: 65 nM
- apparent KD of MS2 coat protein [2]: 62 nM

Sequence: UGUCAGCGAAAGUUGACAUGUCUUACCGGUCGAGGACCGGUACGGCCGCCACUCGAUCACUCGCACAUGAGGAUCACCCAUGUCG [SS Tryp A #20]
- apparent KD of MS2 coat protein (input ligand: arginine 13.2 mM): 11.7 nM
- apparent KD of MS2 coat protein [1]: 14.5 nM
- apparent KD of MS2 coat protein [3]: 13.9 nM

Sequence: AUGUACAUGACGGCCGCCACUACACUGAAAGUGGUCCAGAACAUGAGGAUCACCCAUGUAUCAAGUAGGACCGGGUCAUGUACAU [Tryp B Ex t5]
- apparent KD of MS2 coat protein (input ligand: arginine 13.2 mM): 178 nM
- apparent KD of MS2 coat protein [1]: 425 nM
- apparent KD of MS2 coat protein [3]: 697 nM

Sequence: AAACAUGAGGAUCACCCAUGUGGAACCGAAGGAGCGGCGCACAUGCCAGGUAGGUCGCGGGACAUGAGGACAUGAGGAUCACCCA [Same State Arginine A 3]
- apparent KD of MS2 coat protein (input ligand: arginine 13.2 mM): 45.1 nM
- apparent KD of MS2 coat protein (input ligand: none): 135 nM
- apparent KD of MS2 coat protein [1]: 207 nM
- apparent KD of MS2 coat protein [3]: 184 nM
- apparent KD of MS2 coat protein [2]: 134 nM

Sequence: AAACGUUGCUGCGAUACCAGACAUGAGGAUCACCCAUGUACCAAGGUAAGAAAAUAACAUGUCCCUUGGCAGCGCAGCAACGAAA [MAT - Exclusion Theophlline B - Mod of Eli - D3]
- apparent KD of MS2 coat protein (input ligand: arginine 13.2 mM): 17.5 nM
- apparent KD of MS2 coat protein [1]: 43.6 nM
- apparent KD of MS2 coat protein [2]: 15.6 nM

Sequence: UAGAGCCAGUCGGCCGCCACUCUCCAUAUGUGAGCCUUUAAGUUCUACAUGAGGAUCACCCAUGUGAGGACCGGGACCGAAUCUA [theeternabot_exclusion_MS2_Trp_B_18]
- apparent KD of MS2 coat protein (input ligand: arginine 13.2 mM): 39.7 nM
- apparent KD of MS2 coat protein [1]: 80.3 nM
- apparent KD of MS2 coat protein [3]: 93.8 nM

Sequence: UGUACAUAAUUAGGUUACCUAUGUACAGAAGGAGCGUCGAUGACGACAGGUAGGUCGCUGUUAACAUGAGGAUCACCCAUGUACA [Arg A Ex t4]
- apparent KD of MS2 coat protein (input ligand: arginine 13.2 mM): 37.7 nM
- apparent KD of MS2 coat protein (input ligand: none): 44.4 nM
- apparent KD of MS2 coat protein [1]: 46.2 nM
- apparent KD of MS2 coat protein [3]: 57.3 nM
- apparent KD of MS2 coat protein [2]: 42.4 nM

Sequence: UACUUGCUGACGGCCGCCACUAGAACAUGAGGAUCACCCAUGUAUCUAGUGGCAAUCCUCAUGACUAGGACCGGGUCAGCAAGAU [(Trp1)-(Ms2)-(T)'-(M)'-(Trp2)_Design1]
- apparent KD of MS2 coat protein (input ligand: arginine 13.2 mM): 8.26 nM
- apparent KD of MS2 coat protein [1]: 10.4 nM
- apparent KD of MS2 coat protein [3]: 9.58 nM
